In US11542537B2, “High-purity steviol glycosides” (PureCircle Sdn Bhd, priority 2012, dated 2023):

Test: Catalytic reaction with in-vitro produced UGT91D2, Rebaudioside A to Rebaudioside D
Assay type: biochemical
Settings: in-vitro produced UGT91D2, 0.1 mM Rebaudioside A, after 120 h
Method: The total volume of the reaction was 0.5 mL with the following composition: 50 mM sodium phosphate buffer pH 7.2, 3 mM MgCl2, 3.8 mM UDP-glucose, 0.1 mM Rebaudioside A and 180 μL of in-vitro produced UGT91D2. The reactions were run at 30° C. on an orbitary shaker at 135 rpm. For each sample, 450 μL of reaction mixture was quenched with 45 μL of 2N H2SO4 and 405 μL of 60% MeOH. After centrifugation, the supernatant was analyzed by HPLC (CAD). HPLC indicated a 4.7% conversion of rebaudioside A to rebaudioside D after 120 h.

B1: UGT91D2: UDP-glucosyltransferase, Genbank ACE87855.1, in-vitro produced (protein, UniProt B3VI56 1-473, looked up)
UDP-glycosyltransferase 91D2: MATSDSIVDDRKQLHVATFPWLAFGHILPYLQLSKLIAEKGHKVSFLSTTRNIQRLSSHISPLINVVQLTLPRVQELPEDAEATTDVHPEDIPYLKKASDGLQPEVTRFLEQHSPDWIIYDYTHYWLPSIAASLGISRAHFSVTTPWAIAYMGPSADAMINGSDGRTTVEDLTTPPKWFPFPTKVCWRKHDLARLVPYKAPGISDGYRMGLVLKGSDCLLSKCYHEFGTQWLPLLETLHQVPVVPVGLLPPEVPGDEKDETWVSIKKWLDGKQKGSVVYVALGSEVLVSQTEVVELALGLELSGLPFVWAYRKPKGPAKSDSVELPDGFVERTRDRGLVWTSWAPQLRILSHESVCGFLTHCGSGSIVEGLMFGHPLIMLPIFGDQPLNARLLEDKQVGIEIPRNEEDGCLTKESVARSLRSVVVEKEGEIYKANARELSKIYNDTKVEKEYVSQFVDYLEKNTRAVAIDHES
modifications: in vitro produced
notes: UDP-glucosyltransferase, Genbank ACE87855.1, in-vitro produced
- conversion of rebaudioside A to rebaudioside D (HPLC): 4.7%
